According to the domain aggregation screens of Martell et al. (2025):

Assay: soluble fraction after stress (log2 fold change); higher = more stays soluble; pooled small domains, quantitative proteomics
Conditions: stress: 75 degC
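Also: 20 min heating vs room temperature control held 20 min.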

Row | Sequence | soluble fraction (log2)
1 | HMANGTVKWFNTTKGFGFIAPETGGKDVFVHISAVERSGLTGLADDQKVTFDVEAGRDGRESAVNLAL | 0.0695
2 | HMANKTVPNVSGKTVAEARAIIENQSLQVGEEKEEYSDSVAEGYIIRTNPTAGSQKKEQSKIDLVVSKG | 0.128
3 | HMANLDSLIKKVGQYAKDKQSISVDGIKKDLSIDKDMVKEALAELLKIGVVDKPDEAGQYKVIM | 0.51
4 | HMANPMFAEIKKVQKQLNEMGYQAGPADGLWGNKTENAVKLLLSDNNLKWDGTFDQNEIKIIEEIFLSND | -0.241
5 | HMANPRLEYFLSNITPDWNEFSPELKNQLLIENADPYKLEQYILQVSPDMYIEEQNAPGTVRQMAGDITG | 0.137
6 | HMANSANARKSLVSKLIAGGKIASQSDLVKALKKQGIVVTQGTASRDLEDIGAIRVRNSEGEIVYALT | 0.0457
7 | HMANSDEEVLNKISTKAPTFNELINKIKEFDDTKEINDIWLDVYRYYITDEEYKEIAKKVITGLTYTNQ | -0.386
8 | HMANSLLVTAQAGGQKLFNFLKRSLHAENNEIHRWIRTGQVRINKKRTKAFDIVHENDEIRIPPFALNR | -0.444
9 | HMANSREIPKLAGIEQEEAVKQLLDLDLKPVIEEITDDDTDAGDVVRTDPAAGEHVAVDTEITVFISIG | -0.987
10 | HMANVQLAKNLKTLRKKYNYTQQDVSTFLNITRQAYSHYEQALREPDLNTLVHLSRFYQVTLDELI | -4.33
11 | HMANYHDIAADLRSKINHGFYEEEKKLPKQSELAADYQTSRVTIQKALNILQMEGIIYGKKGTGTFIRDSY | -0.32
12 | HMANYTVNAYNNGGTGGSVNMRSGPSTNDGIVVRVPHGATVTGTKSGTWSYMTYNTYTGYMMSVYLDEQS | -1.57
13 | HMAPAPYLVKVTANKLNIRSGPGTNYKIQGAITDKGTYTIVDTQGRWGKLKSGAGWIYLNYTKK | -1.98
14 | HMAPASADQLIDQLNEKVKAKDDKGVAALLTAAQTKMAELAQKDPKEAQAYVAKLQQWMQSNSENIKAALK | 0.439
15 | HMAPAYELTEEETKIIEILKANENIDLNELKSQAALSGKKWDKSMKNLAKYNLTKVTVDGDAKTVAYLA | 0.164
16 | HMAPELSGEKLWDAQDVAMFLRVKPTTVWSYVSRDGFPAPVSQAGRAGMWSEPLVVQWYLSRPG | 0.154
17 | HMAPEPFILSVDADGKYYIDDLEKTKQEILIYATALYQEKPTTDFLVRGDKSAAYNDVLQAMVVLKE | 0.325
18 | HMAPETALQILEQIQINPKVTMTDLANLTGYSRRWVAQTMKQLQELNVIKRVGSTKTGYWEIIA | -0.576
19 | HMAPGSKAEIPEDLMKVINKDPKMKAFVATLNKANIMAISFRLSTAKKPETRERRFNLILETLKRGEKF | -3.16
20 | HMAPKVTLNETETAIFEKMQQEKQLLLSELRTHFDISNKLWDTSIKTLTKNQLLTVSKEADLLWIKL | -1.34
21 | HMAPLAVIFPEPWRGMIAPEKLEGLTQALSLNPRPGYQHDPTRRYGVSLDGLDVRFTIDGDTLTVVEVVT | -1.64
22 | HMAPNKLQQQEVWTKALPLLQQMIMTIRQIDAAGGDSSPERELLEETAARFDETLDVERFLP | -0.339
23 | HMAPPPLAGAREALREQIRRGSLSARRGFDAYADALGLPAGTRGAHPIFAALQRLDYPQALRLLDQEPT | -0.0614

Row | Sequence | soluble fraction (log2)
24 | HMAPQVKIPNLVDVSQRQAEAILNSYGLKVGHLIYKPDLAKDAVLGFMFNGRSLKAGDELAKGSSIDLILG | -0.277
25 | HMAPRDKADKYVAAGIAEELVPILQKVGYYLVTDLKDVKAQKIQQQIGEIIKKYKLDIEKPSVQDIEGWN | -0.192
26 | HMAQDIEQLEKAVSFYTRMDPAAAALSITNLDQKTAVNILMRMKDKQASAVLESMTAERSSELIDSIARK | 0.0292
27 | HMAQELPYEKVTMNGKMFYVYHVKAGEGLYLISRTFSVNADEILKFNPSIENGLKSGQVLYIPIK | -1.23
28 | HMAQISDESALYDLVKSVLDANPQSIADYKAGRDRALGFLMGQAMKLSKGKANPPVINKILKEMLDK | 0.161
29 | HMAQKQLYIAGTDYTKNSTSQLVLAYFPAKPSSIKIFFDGIYQNKDKWSLFGKTIIFGLPISSNAVEVHYE | -4.34
30 | HMAQLPADLSKVKSSQISDQQLTQIAQQAKNSGQSEQAVLQELKQRGLPDTEIQALGARISGLMQ | 0.211
31 | HMAQLVVTVDKLNKRTAIPVTLSDKSSNDSVVEKGFRFEGFPFVNTATNGKKWYKDREGFFYWAGGLMEEA | 0.0903
32 | HMAQMDDPEMVLHIYNKMIQQRLFDTAVGYSYLKDLQEYLQSIPFIRKEDIFPIPVQHPQVEESLRKAK | -0.689
33 | HMAQTSAELIIEYLKRNDGFMELTDKSPADEIYETFGISKKNFKMAVGSLYKNRVIEIGQNGIRLVE | -0.426
34 | HMAQTTKWREIHKVKRKETIFGIARDNGLTVDELIEANPEMTKPGYELKKGDFIYIPFPSKNIDTNAGTQT | 0.498
35 | HMARAESYGDIARLEQLLDEHANIAALDPGKLPAVRQQIWTLMRAARMDHDLGLAERPEDDSFDDMLLHV | 0.208
36 | HMARAPIYPDGLTQREVEVLSLVAAGKTDREIAEELFIALRTVTTHVGNILNKIGAANRTEAAGYATRQGL | -1.7
37 | HMARAVSPLEAIPGVGPRRRQQLLKQLGGMQEVARAGVEDLSRVPGISRALAQQIYDAFHGD | -0.287
38 | HMARDPWDVLGVAKTATNDEIKRAFKRQAMMTHPDKQGGSEERFKEVNEAYSHIKDEQSRAKYQNSQ | 0.158
39 | HMARDSYNGVQRTISTLLGQGNYDRAYDVAVGARGQMSKQQWSDVAKRIYEVSGIKIDDSVKY | -0.113
40 | HMARRSRADAVRNREALIDAAKAAFTEAGPDVSLEEIARRAGVGIGTLYRHFPTRDAVIEAVYR | -0.185
41 | HMARRTPPPTVSELNALLRVAAPHIQRVILLGIYTGARIGPSELFSLKWDDVDLTRGVIGIRL | -0.0659
42 | HMARTDVKLREVAQELLRMGLLEESLRPHLYRTALASMERLNATLEPLDLIARADEIRGLVFLAVRH | -2.73
43 | HMARVSGIDLPKNKRGYIGLTYIYGIGRSTALHILNSAGVDPEKKVHEWNDDETTAIRNIINAEIKVEGAL | -0.631
44 | HMASAKTVAQSGTYKFAKTTAIKSSASDAASTVGTYYKGNTVNYNAKVTTNGQTWLRYTSYSGAQYYVKVS | -3.66
45 | HMASANMPDVLGLDAETAKQVLAAKGFTKVEIYPMESSEPANRVVRQSEDRDTMVALTKEILLGVSNGS | 0.0531
46 | HMASENISYSQFINQVKNSMVESVSIEADGKTISGKYKSGSSFVTYGLNDPKLVDDLLSNNVEIL | 0.143

Row | Sequence | soluble fraction (log2)
47 | HMASGLITEEQAKSKALAHAGLSASQVNFIWVKQDWEDGRRVYEVEFYTDDYQEYDYEIDARTGEILSFDY | -1.84
48 | HMASIGTATVTADNLRLRSEAGTGAETLTMAPKGAEVTVEEDAGDGWYKVTYGDTEGYMSGEWLKITLA | -0.0355
49 | HMASLIGEEKALQIALEHAGVALENVAYSQVKLENDDGRWEYDTEFYSGSKEYDYEIDASTGEILGYDHD | 0.0872
50 | HMASLSITVNGETRRAAPGSIADLVRAIGLDPAKVAVERNGEIAPRSTLADVALADGDVLEIVHFVG | -0.359
51 | HMASMEDILAEAKTKFQEGDLFKSVNEGIQGTHKLTLPLRIKESRIVDASGAAVYREGIWATVDK | 0.166
52 | HMASMNPVWLEFPNIPWGSAGWRMGWGEDYMRRWAKWYISLAEVERQSYKSDWPEPQEWEGFYAFMEHGT | -1.85
53 | HMASPEIAFLNKFYQLSNTVNEISVMKIVKNYQEKYQQRISIEQMAKTLKTMGYAVRNNIISNIEEAPV | -1.53
54 | HMASPRVWKDASSGRTLTGEFVELTKDAVKVRRANGDVVSLPLSRLTEEDITFAKGASETGGA | 0.198
55 | HMASVLTAKLSEREVDVLNLLARGFTNADIAAQLHLSEGTVRNHVSTIFAKLDVNDRTQAAVIAIRHGL | -2.52
56 | HMASVLTGMLGRVTGELAPKGIVMVGNETWTAVSEDDSVIRIGEPVEVRSVEGLILTVFRRID | -2.66
57 | HMATAADLLQSATGVPRSDALLLLAKLLGVAKERLIAHPETVVSEKTQATFSDWIERVRGGFPTTYLLG | -0.393
58 | HMATAEETTPLWARNRLSHAIFGPGSVTGEDERSFEVAFDNGDTLNFSKKSAHLYFTAMSSR | -0.169
59 | HMATARPPPPPESRVEVLFDGRWYAGTVVGGALDEHRATVFFDADRLSQVINFAETGIRVLGT | -0.123
60 | HMATEYIIPTVTNKKLEEAIGIAQLRGFEISVDEYKPSDIDEGTVLEQSPAAGTNAKQGDTISVTVSSG | 0.476
61 | HMATFTPYLVRITASVLNIRKGPGTTYAVTGQIKDRGVYTIVEQKGNWGRLKSGAGWISLSYTKK | -3.25
62 | HMATPAFEMYKVRRGDTPAGLAKEWGFPDMASFYRINPDARSDWKRGLQLVKPMNEMAVLQATA | -0.302
63 | HMATPKYMELVRWINEQIESKNLVPGQKMYSENTLKEMFGVSRQTVRHAIGVLENEGVIRRIQGSGTYIN | -1.51
64 | HMATPSTGQVSVVRLNLRVSPSISSPVVTRLTQGDTVKILAASDDGRWYKVATADGRTGWLYTIYITAE | -1.34
65 | HMATQTGTVKWFNEGKGFGFIAPDDGSKDLFAHFSEIKTTGFKTLAEAQRVEFEVTEGRKGLQASNIK | 0.442
66 | HMATRLPFGFAKRFGVLVEGKDDQITVYHKDGLQTAVILEIQRYLARPFRFEAVTPEEFERRLGLAYQS | -2.44
67 | HMATSNDTQITGSLALRFDGSGDTFTVNVNGDDKLEINTEGTVIYKPLTTAPTYVSGGLFFSSSGDFYVG | 0.00147
68 | HMATTIDFTVGDDVQVMNGPLESFTGKVTELNEASQKVKVDVVMFGRVTNVELDFVQVKKIT | -1.04
69 | HMATTIEAPMPGKILDVKVNPGQAVSYGQVVLTMEAMKMETEIVAPADGTVASVLVKSGDMVETGAALVSL | -0.344
